The record followed here is patent US20250042994A1 (HAINAN SIMCERE ZAIMING PHARMACEUTICAL, published 2025).

The labels stand for the following.
B1: F5.11.2 (antibody, human IgG1, V domains shown)
VH: EVQLVESGGDLVKPGGSLKLSCAASGFTFSSYGMSWVRQTPDKRLEWVATISHGGSYTHYPDSVKGRFTISRDNAKNTLYLQMNSLKSEDTAMYYCVRLPITTVEAPYFFDYWGQGTTLTVSS
VL: DIQMTQTTSSLSASLGDRVTISCRASQDIRNYLNWYQQKPDGTVKLLIYYTSILHSGVPSRFSGSGSGTDYSLTINNLEQEDVATYFCQQGNTLYTFGGGTEVELR
notes: human-murine chimeric antibody, human IgG1
B2: F4.276.12 (antibody, human IgG1, V domains shown)
VH: EIQLQQSGPELVKPGASVKVSCKASGYAFSAYNMYWVKQSHGKSLEWIGYIDPYNGGTNYNQKFKGKATLTVDKSSSTAYMHLNSLTSEDSAVYYCARDGYEVTYWGQGTLVTVSA
VL: QIVLTQSPALMSASLGEEITLTCSASSSVTYMHWSQQKSGTSPRLLIYSTSNLASGVPSRFSGSGSGTFYSLTISSVEAEDAADYYCHQWSSYPWTFGGGTKLEIK
notes: as for B1
B3: F3.23.10 (antibody, human IgG1, V domains shown)
VH: EFQLQQSGPELVKPGASVKISCKASDYSFTDYNMNWVKQSNGASLEWIGIINPNFGSTSYNQKFKGKATLTVDQSSSTAFMQLNSLTSEDSAVYYCARSEYYGSSGFAYWGQGTLVTVSA
VL: DVVVTQTPLSLPVSFGDQVSISCRSSQSLVNSYGNTYLSWYLHKPGQSPQLLIYGISNRFSGVPDRFSGSGSGTDFTLKITTIKPEDLGMYYCLQGTHQPWTFGGGTKLEIK
notes: as for B1
B4: F4.37.6 (antibody, human IgG1, V domains shown)
VH: QVQLQQSGAELARPGASVKLSCKASGYTFTSFWMQWLKQRPGQGLEWIGTIYPGDGDTRYTQKFKGKATLTADKSSNTAYMQLSSLASEDSAVYYCARGALSNYGGFAYWGQGTLVTVSA
VL: NIVLTQSPASLAVSLGQRATISCRASESVDSYGHSFMHWYQQKPGQPPKLLIYLASNLESGVPARFSGSGSRTDFTLTIDPVEADDAATYYCQQNNEDPWTFGGGTKLEIK
notes: as for B1
B5: F4.49.11 (antibody, human IgG1, V domains shown)
VH: DVQLRASGPGLVKPSQSLSLTCSVTGYSITSGYYWNWIRQFPGNKLEWMGCISYDGTNNYNPSLKNRISFTRDTSKNQFFLNLNSVTTEDSATYYCARRVYYRYDGVVDYWGQGTSVTVSS
VL: ENVLTQSPAIMSASPGEKVTMTCSASSSVSYIHWYQQKSSTAPKLWIYDTSKLASGVPGRFSGSRSRNSYSLTISSMEAEDVATYYCFQGSGYPLTFGSGTKLEIK
notes: as for B1
B6: F4.58.6 (antibody, human IgG1, V domains shown)
VH: QVQLQQPGAELVKPGASVKLSCKASGYTFTSYWMHWVKQRPGQGLEWIGEIDPSDSYSNYNQKFKGKATLTVDKSSSTAYMQLSSLTSEDSAVYYCARSNYGSSYGYFDVWGAGTTVTVSS
VL: QIVLTQSPAIMSASPGEKVTMTCSVSSSLSYMHWYQQKPGTSPKRWIYDTSKLASGVPARFSGSGSGTSYSLTISSMEAEDAATYYCHQRSSYPTFGGGTKLEIK
notes: as for B1
B7: F4.35.5 (antibody, human IgG1, V domains shown)
VH: EIQLQQSGPELVKPGASVKVSCKASGYAFTSYNMYWVKQSHGKSLEWIGYIDPYNGDTRYNQKFKGKATLTVDKSSSTAYMHLNSLTSEDSAVYYCTRSGTGRDYWGQGTTLTVSS
VL: QIVLTQSPAIMSASPGEKVTMTCSASSSISYMFWFQQKPGSSPRLLIYDTSSLASGVPVRFSGSGSGTSYTLTISRMEAEDAATYYCQQWSNYPYTFGGGTKLEMK
notes: as for B1
B8: F4.96.6 (antibody, human IgG1, V domains shown)
VH: EIQLQQSGPELVKPGASVKVSCKASGYAFSAYNIYWVKQSHGKSLEWIGYIDPYNSGTTYNQKFRGKATLTVDKSSNTAYMHLSSLTSEDSAVYYCTRDGDAMDYWGQGTSVTVSS
VL: EILLTQSPAIIAASPGEKVTITCSASSGVIYMNWYQQKPGSSPKIWIYDVSTLASGVPARFSGSGSGTSFSFTINSMEAEDVATYYCQQRSSYPYTFGGGTKLEIK
notes: as for B1
B9: F6.2.9 (antibody, human IgG1, V domains shown)
VH: QVQLQQSGAELVKPGASVKISCKASGYAFSSYWMNWVKQRPGKGLEWIGQIYPGDGDTNYNGKFKGKATLTADKSSSTGYMQLSSLTSEDSAVYFCARSRITSVVDWYFDVWGTGTTVTVSS
VL: QIVLSQSPAILSASPGEKVTMTCRASSSVSYMHWYQQKPGSSPKPWIYATSNLASGVPARFSGSGSGTSYSLTISRVEAEDAATYYCQQWSSNPPTFGAGTKLELK
notes: as for B1

For the first experiment, the target named is T1, Human CD19-his protein (human, UniProt P15391 20-291).
T1 construct: bought protein; also called human CD19 protein; recombinant human CD19-His; not shown: His tag
T1 sequence (looked up): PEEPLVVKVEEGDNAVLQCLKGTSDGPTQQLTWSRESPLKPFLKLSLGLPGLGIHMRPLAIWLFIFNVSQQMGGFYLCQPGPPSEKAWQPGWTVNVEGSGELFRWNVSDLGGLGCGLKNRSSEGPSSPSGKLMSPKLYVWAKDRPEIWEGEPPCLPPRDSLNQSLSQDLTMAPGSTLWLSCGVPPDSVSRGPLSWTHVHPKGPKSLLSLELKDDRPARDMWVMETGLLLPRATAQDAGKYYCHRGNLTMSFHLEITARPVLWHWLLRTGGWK
The experiment is described as follows: ELISA, antibody at 0.01 nM. The method, then:
(§1) Human CD19-his protein (purchased from ACROBiosystems, catalog number: CD9-H52H2) was diluted with PBS to a final concentration of 4 μg/mL, and then added to a 96-well ELISA plate at 100 μl/well. The plate was sealed with a plastic film and incubated overnight at 4° C., the plate was washed 2 times with PBS the next day, and then a blocking solution [PBS+2% (w/w) BSA] was added for blocking at room temperature for 2 h. The blocking solution was poured off, and 100 nM gradiently diluted CD19 chimeric antibody or control antibody was added at 50 μl/well. After incubation at 37° C. for 2 h, the plate was washed 3 times with PBS. […] TMB substrate was added at 50 μl/well, and incubated at room temperature for 10 min, and then a stop solution (1.0 N HCl) was added at 50 μl/well. The OD450 nm values were read by an ELISA microplate reader (Multimode Plate Reader, EnSight, purchased from Perkin Elmer).
Background: ELISA stands for enzyme-linked immunosorbent assay.
As to B1, the OD450 came out at 0.14.
Molecule B2 gave an OD450 of 0.13.
On the same count and under the same terms, the figure for B3 is 0.09; for B4 it is 0.2; for B5 it is 0.07.
In the case of B6, the OD450 is 0.09.
Same read-out and setting: with B7 the figure was 0.07; with B8, 0.11; with B9, 0.06.

For the next experiment, the target named is T1, Human CD19-his protein. The experiment in a line: ELISA, antibody at 10 nM. On the procedure: as §1
On to B1, for which the OD450 came to 2.68.
Molecule B2 displayed an OD450 of 1.2.
Same read-out and setting: the figure for B3 is 1.85; for B4 it is 1.
On the same count and under the same terms, the figure for B5 is 0.85; for B6 it is 0.8; for B7 it is 0.65.
Still for that read-out and setting: with B8 the figure was 1.16; with B9, 0.26.

The target in a further experiment is T1, Human CD19-his protein. The experiment in a line: ELISA, antibody at 0.001 nM. The method, then:
as §1
For the molecule B1, the OD450 was 0.07.
For B2, the OD450 was found to be 0.06.
The same measure, in the same setting: the figure for B3 is 0.06; for B4 it is 0.09; for B5 it is 0.05.
Same read-out and setting: the figure for B6 is 0.05; for B7 it is 0.05; for B8 it is 0.06.
In turn, B9 yielded an OD450 of 0.06.

The target in another experiment is T1, Human CD19-his protein. The experiment is described as follows: ELISA, antibody at 1.00 nM. The method, then: as §1
As to B1, the OD450 was found to be 1.82.
Regarding B2, the OD450 worked out at 1.07.
The molecule B3 showed an OD450 of 1.27.
Same read-out and setting: with B4 the figure was 0.8.
B5 displayed an OD450 of 0.48.
Turning to B6, the OD450 was 0.67.
B7 displayed an OD450 of 0.5.
The same measure, in the same setting: with B8 the figure was 0.91.
Same read-out and setting: with B9 the figure was 0.13.

The next experiment deals with T1, Human CD19-his protein. The experiment is described as follows: ELISA, antibody at 0.10 nM. The method, then: as §1
In the case of B1, the OD450 amounted to 0.56.
The same measure, in the same setting: with B2 the figure was 0.4; with B3, 0.39.
Still for that read-out and setting: the figure for B4 is 0.6.
B5 yielded an OD450 of 0.13.
The same measure, in the same setting: with B6 the figure was 0.3; with B7, 0.25; with B8, 0.29.
The same measure, in the same setting: with B9 the figure was 0.08.

The target in another experiment is T2, murine CD19 protein (murine, UniProt P25918 17-287, limits assumed).
T2 construct: bought protein; also called commercial murine CD19
T2 sequence (looked up): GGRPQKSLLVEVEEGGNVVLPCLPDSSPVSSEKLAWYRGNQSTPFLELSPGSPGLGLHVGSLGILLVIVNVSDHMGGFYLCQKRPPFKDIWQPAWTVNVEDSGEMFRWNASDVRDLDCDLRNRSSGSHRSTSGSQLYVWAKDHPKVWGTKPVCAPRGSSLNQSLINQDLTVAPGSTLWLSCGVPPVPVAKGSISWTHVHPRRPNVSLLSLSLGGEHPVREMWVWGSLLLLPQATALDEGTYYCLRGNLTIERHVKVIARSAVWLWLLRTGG
The experiment in a line: ELISA, coated murine CD19. The method, then: as §1
In order to detect the species cross-binding activity of the chimeric antibodies, an ELISA plate was coated with commercial murine CD19 (ACROBiosystems, catalog number: 50510-M08H) and monkey CD19 (ACROBiosystems, catalog number: 90051-C08H), respectively, and the ELISA detection was performed according to the method in example 5.1.
Turning to B1, the binding result is listed as “no binding”.
Same read-out and setting: with B2 the entry was “no binding”; with B3, “no binding”.
The same measure, in the same setting: with B4 the entry was “no binding”.
Still for that read-out and setting: with B5 the entry was “no binding”.
Consider B6, for which the binding result was “no binding”.
Still for that read-out and setting: the entry for B7 is “no binding”.
Same read-out and setting: with B8 the entry was “no binding”; with B9, “no binding”.

A further experiment has as its target T1, Human CD19-his protein. The experiment is described as follows: ELISA, antibody at 100 nM. On the procedure:
as §1
With B1, the OD450 is 3.01.
Still for that read-out and setting: with B2 the figure was 1.43; with B3, 2.14; with B4, 1.08.
On the same count and under the same terms, with B5 the figure was 1.16; with B6, 0.94.
The same measure, in the same setting: the figure for B7 is 0.87.
With B8, the OD450 was determined as 1.64.
Still for that read-out and setting: the figure for B9 is 0.33.

The target in a further experiment is T1, Human CD19-his protein. The experiment is described as follows: ELISA, antibody at 0.0001 nM. On the procedure:
as §1
The molecule B1 registered an OD450 of 0.06.
As for B2, the OD450 was 0.05.
On the same count and under the same terms, with B3 the figure was 0.05.
Same read-out and setting: the figure for B4 is 0.07; for B5 it is 0.04; for B6 it is 0.05.
On the same count and under the same terms, with B7 the figure was 0.05.
As for B8, the OD450 amounted to 0.05.
B9 returned an OD450 of 0.06.

In another experiment the target is T3, human CD19 exon1-3-his protein (human, UniProt P15391 20-186, limits assumed).
T3 construct: made in HEK293E cells; also called membrane-distal end; not shown: His tag
T3 sequence (looked up): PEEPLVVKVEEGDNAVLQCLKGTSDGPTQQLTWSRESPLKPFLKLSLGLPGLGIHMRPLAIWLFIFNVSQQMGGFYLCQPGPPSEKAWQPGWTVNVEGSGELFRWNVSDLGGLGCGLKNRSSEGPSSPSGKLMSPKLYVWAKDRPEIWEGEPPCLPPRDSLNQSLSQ
The experiment in a line: ELISA, coated at 2 ug/mL. The method, then:
as §1
CD19 protein contains 4 exons in the extracellular region, in which exons 1-3 are located at the membrane-distal end and exon 4 is located at the membrane-proximal end. […] To identify the distribution of antigen binding epitopes of the chimeric antibodies, human CD19 exon 1-3-His (membrane-distal end) was used to coat at 2 μg/mL according to the ELISA method in example 5.1.
Take B2: the binding result is recorded as “no binding”.
On the same count and under the same terms, with B4 the entry was “no binding”.
In the case of B5, the binding result is listed as “no binding”.
Still for that read-out and setting: the entry for B6 is “no binding”; for B7 it is “no binding”.
The same measure, in the same setting: with B8 the entry was “no binding”; with B9, “no binding”.
